The labels stand for the following.
B1: IgG1-F302 (antibody)
heavy: QVQLQESGPGLVKPSETLSLTCAVSGHSISHDHAWSWVRQPPGEGLEWIGFISYSGITNYNPSLQGRVTISRDNSKNTLYLQMNSLRAEDTAVYYCARSLARTTAMDYWGEGTLVTVSSASTKGPSVFPLAPSSKSTSGGTAALGCLVKDYFPEPVTVSWNSGALTSGVHTFPAVLQSSGLYSLSSVVTVPSSSLGTQTYICNVNHKPSNTKVDKKVEPKSCDKTHTCPPCPAPELLGGPSVFLFPPKPKDTLYISREPEVTCVVVDVSHEDPEVKFNWYVDGVEVHNAKTKPREEQYNSTYRVVSVLPVLHQDWLNGKEYKCKVSNKALPAPIEKTISKAKGQPREPQVYTLPPSRDELTKNQVSLTCLVKGFYPSDIAVEWESNGQPENNYKTTPPVLDSDGSFFLYSKLTVDKSRWQQGNVFSCSVMHEALHYHYTQKSLSLSP
light: not shown
notes: EU numbering; copies: 2 + 2
B2: IgG1-F311 (antibody)
heavy: B1 heavy with S241K, Y254W, E258T, P309T, V310P, M430F
light: not shown
notes: EU numbering; copies: 2 + 2
B3: IgG1-F321 (antibody)
heavy: B1 heavy with S241K, E258T, D272F, P309T, V310P, N327G
light: not shown
notes: EU numbering; copies: 2 + 2
B4: IgG1-F335 (antibody)
heavy: B1 heavy with S241K, D272F, P309T, V310P, M430I
light: not shown
notes: EU numbering; copies: 2 + 2
B5: IgG1-F315 (antibody)
heavy: B1 heavy with S241K, E258T, P309T, M430Y
light: not shown
notes: EU numbering; copies: 2 + 2
B6: IgG1-F344 (antibody)
heavy: B1 heavy with S241K, E258T, P309T, V310P, M430L
light: not shown
notes: EU numbering; copies: 2 + 2
B7: IgG1-F326 (antibody)
heavy: B1 heavy with S241K, E258T, D272F, P309Q, Q313A
light: not shown
notes: EU numbering; copies: 2 + 2
B8: IgG1-F343 (antibody)
heavy: B1 heavy with S241K, E258T, D272F, P309T, V310P, M430L
light: not shown
notes: EU numbering; copies: 2 + 2
B9: IgG1-F323 (antibody)
heavy: B1 heavy with S241K, D272F, P309T, V310P
light: not shown
notes: EU numbering; copies: 2 + 2
B10: IgG1-F349 (antibody)
heavy: B1 heavy with S241K, E258T, P309T, V310P, L311P, M430L
light: not shown
notes: EU numbering; copies: 2 + 2
B11: IgG1-F353 (antibody)
heavy: B1 heavy with S241K, E258T, P309T, L311R, M430L
light: not shown
notes: EU numbering; copies: 2 + 2
B12: IgG1-F303 (antibody)
heavy: B1 heavy with E258T, M430Y
light: not shown
notes: EU numbering; copies: 2 + 2
B13: IgG1-F333 (antibody)
heavy: B1 heavy with S241K, E258T, D272F, P309Q, L311E, Q313A
light: not shown
notes: EU numbering; copies: 2 + 2
B14: IgG1-F306 (antibody)
heavy: B1 heavy with Y254W, E258T, P309T, V310P, E384A
light: not shown
notes: EU numbering; copies: 2 + 2
B15: IgG1-F322 (antibody)
heavy: B1 heavy with S241K, E258T, D272F, V310P
light: not shown
notes: EU numbering; copies: 2 + 2
B16: IgG1-F320 (antibody)
heavy: B1 heavy with S241K, E258T, P309T, V310P, N327G, E384A, M430I
light: not shown
notes: EU numbering; copies: 2 + 2
B17: IgG1-F317 (antibody)
heavy: B1 heavy with S241K, E258T, D272F, P309T, V310P, M430Y
light: not shown
notes: EU numbering; copies: 2 + 2
B18: IgG1-F308 (antibody)
heavy: B1 heavy with S241K, Y254W, E258T, P309T, V310P, E384A, M430Y
light: not shown
notes: EU numbering; copies: 2 + 2
B19: IgG1-F331 (antibody)
heavy: B1 heavy with S241K, E258T, D272F, P309T, V310P, P389E
light: not shown
notes: EU numbering; copies: 2 + 2
B20: IgG1-F338 (antibody)
heavy: B1 heavy with S241K, E258T, D272F, N288E, P309T, V310P, M430I
light: not shown
notes: EU numbering; copies: 2 + 2
B21: IgG1-F318 (antibody)
heavy: B1 heavy with S241K, E258T, P309T, V310P, M430I
light: not shown
notes: EU numbering; copies: 2 + 2
B22: IgG1-F316 (antibody)
heavy: B1 heavy with S241K, E258T, D272F, P309T, M430Y
light: not shown
notes: EU numbering; copies: 2 + 2
B23: IgG1-F312 (antibody)
heavy: B1 heavy with S241K, Y254W, E258T, P309T, E382A, E384A, M430F
light: not shown
notes: EU numbering; copies: 2 + 2
B24: IgG1-F350 (antibody)
heavy: B1 heavy with S241K, E258T, P309T, V310P, L311R, M430L
light: not shown
notes: EU numbering; copies: 2 + 2
B25: IgG1-F328 (antibody)
heavy: B1 heavy with S241K, E258T, D272F, P309T, V310P, M430I
light: not shown
notes: EU numbering; copies: 2 + 2
B26: IgG1-F314 (antibody)
heavy: B1 heavy with P309T, Q313A, D314A, M430Y
light: not shown
notes: EU numbering; copies: 2 + 2
B27: IgG1-F304 (antibody)
heavy: B1 heavy with Y254W, E258T, P309T, V310P, M430Y
light: not shown
notes: EU numbering; copies: 2 + 2
B28: IgG1-F336 (antibody)
heavy: B1 heavy with S241K, E258T, D272F, P309Q, V310P, Q313A, M430I
light: not shown
notes: EU numbering; copies: 2 + 2
B29: IgG1-F313 (antibody)
heavy: B1 heavy with S241K, E258T, M430Y
light: not shown
notes: EU numbering; copies: 2 + 2
B30: IgG1-F339 (antibody)
heavy: B1 heavy with S241K, E258T, D272F, P309T, V310P, L311E, M430I
light: not shown
notes: EU numbering; copies: 2 + 2
B31: IgG1-F352 (antibody)
heavy: B1 heavy with S241K, E258T, P309T, L311P, M430L
light: not shown
notes: EU numbering; copies: 2 + 2
B32: IgG1-F324 (antibody)
heavy: B1 heavy with S241K, E258T, D272F, P309Q, V310P
light: not shown
notes: EU numbering; copies: 2 + 2
B33: IgG1-F334 (antibody)
heavy: B1 heavy with S241K, E258T, D272F, P309T, V310P, N327G, M430I
light: not shown
notes: EU numbering; copies: 2 + 2
B34: IgG1-F310 (antibody)
heavy: B1 heavy with S241K, Y254W, E258T, P309T, V310P, E384A, M430I
light: not shown
notes: EU numbering; copies: 2 + 2
B35: IgG1-F337 (antibody)
heavy: B1 heavy with S241K, E258T, D272F, P309Q, Q313A, M430I
light: not shown
notes: EU numbering; copies: 2 + 2
B36: IgG1-F325 (antibody)
heavy: B1 heavy with S241K, E258T, D272F, P309Q, V310P, Q313A
light: not shown
notes: EU numbering; copies: 2 + 2
B37: IgG1-F330 (antibody)
heavy: B1 heavy with S241K, E258T, D272F, P309T, V310P, L311E
light: not shown
notes: EU numbering; copies: 2 + 2
B38: IgG1-F305 (antibody)
heavy: B1 heavy with P309T, V310P, E384A
light: not shown
notes: EU numbering; copies: 2 + 2
B39: IgG1-F307 (antibody)
heavy: B1 heavy with S241K, Y254W, E258T, P309T, V310P, E384A
light: not shown
notes: EU numbering; copies: 2 + 2

Numbering of substitutions follows the chain as printed.

For this assay, the target named is T1, human FcRn (soluble human FcRn complexed with β2-microglobulin) (human, UniProt P61769 21-119, limits assumed).
T1 construct: also called hFcRn
T1 sequence (chain, as listed by the source limits assumed, chain 1 of 2): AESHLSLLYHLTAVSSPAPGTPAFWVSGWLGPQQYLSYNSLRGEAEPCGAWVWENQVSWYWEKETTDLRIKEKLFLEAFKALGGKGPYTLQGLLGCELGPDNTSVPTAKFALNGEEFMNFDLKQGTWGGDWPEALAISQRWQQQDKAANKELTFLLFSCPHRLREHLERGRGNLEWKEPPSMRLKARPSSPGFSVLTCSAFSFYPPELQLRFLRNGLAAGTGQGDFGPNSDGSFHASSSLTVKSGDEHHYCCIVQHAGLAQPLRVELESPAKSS
T1 sequence (P61769 21-119 limits assumed, chain 2 of 2): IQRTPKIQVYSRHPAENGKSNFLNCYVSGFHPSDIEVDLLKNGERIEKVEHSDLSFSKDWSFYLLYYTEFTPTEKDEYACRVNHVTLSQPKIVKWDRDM
Kind of assay: SPR, pH 7.0.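 Also: antibodies captured on a Protein L sensor chip with human FcRn injected as analyte, KD calculated from fitted association and dissociation rate constants.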
For B1, the affinity, expressed as Kd, was 0.19 µM.

B2 showed a Kd of 0.028 µM.

As for B3, the Kd was found to be 0.032 µM. The molecule B4 displayed a Kd of 0.015 µM.

For B5, the affinity, expressed as Kd, was 0.68 µM. The same measure for B6: 0.03 µM; for B7: 0.075 µM. The same measure for B8: 0.032 µM. For B9, binding was put at a Kd of 0.027 µM. Turning to B10, the Kd was 0.15 µM. B11 returned a Kd of 1.1 µM. In turn, B12 had a Kd of 0.67 µM. B13 returned a dissociation constant Kd of 0.074 µM.

As for B14, the Kd turned out to be 0.036 µM. In the case of B15, the affinity, expressed as Kd, was 0.092 µM. B16 had an equilibrium dissociation constant (Kd) of 0.02 µM. The same measure for B17: 0.11 µM.

Take B18: binding was characterised by a dissociation constant (Kd) of 0.019 µM. Consider B19, for which the dissociation constant (Kd) stood at 0.03 µM. Molecule B20 showed a Kd of 0.0077 µM. For the molecule B21, the affinity, expressed as Kd, was 0.018 µM. For B22 the value was 0.7 µM. Turning to B23, the Kd worked out at 0.45 µM. Regarding B24, the Kd is 0.17 µM. The same measure for B25: 0.019 µM. For B26 the value was 0.32 µM; for B27, 0.016 µM; for B28, 0.014 µM.

On to B29, for which the Kd came out at 0.65 µM. Molecule B30 had a Kd of 0.019 µM. Consider B31, for which the affinity, expressed as Kd, was 0.6 µM. As to B32, the Kd worked out at 0.028 µM. B33: the Kd turned out to be 0.019 µM.

Turning to B34, binding was characterised by a dissociation constant (Kd) of 0.094 µM. In turn, B35 showed a Kd of 0.056 µM.

Regarding B36, binding was characterised by a dissociation constant (Kd) of 0.021 µM. The molecule B37 registered a Kd of 0.036 µM.

In turn, B38 yielded a Kd of 0.027 µM.

B39 came in with a Kd of 0.036 µM.

(Values after patent publication US20200199241A1 (Chugai, published 2020).)
